Six molecules from US20220363752A1 (VERSEAU THERAPEUTICS, published 2022) can be followed below.

Primed or numbered codes have the meaning given here. Biotin′ = not defined here

Assay [1] has as its target T1, His-tagged cynomolgus monkey LRRC25 extracellular domain protein, cyno LRRC25-His (cynomolgus monkey).
T1 construct: The entry holds the extracellular domain, a GSG linker and the His tag
Briefly: ELISA, plate-immobilized antigen. Summed up:
(§1)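 Wells coated overnight at 4 °C with 1 ug/mL antigen in PBS pH 7.4. Antibodies titrated from 500 nM in 3-fold steps in 1% skimmed milk/PBS, 1 h at room temperature, then HRP anti-human IgG; TMB read at A450 nm and EC50 taken from binding curves.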
In general terms: In an ELISA, binding on a coated surface is turned into a signal by an enzyme label.

Assay [2] has as its target T2, His-tagged human LRRC25 extracellular domain protein, human LRRC25-His (human, UniProt Q8N386 21-165).
T2 construct: The entry holds the extracellular domain, a GSG linker and the His tag; also called LRRC25(ECD)-HIS
Description: ELISA, plate-immobilized antigen. The procedure, abridged:
as §1

Assay [3] deals with T3, LRRC25(111-130) biotin peptide (human, not fully specified; N-terminal acetyl; C-terminal GGK-Biotin; native Cys changed to Ser).
T3 peptide: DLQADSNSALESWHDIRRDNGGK
Briefly: peptide ELISA. Summed up: (§2)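 Plate-bound streptavidin captured biotinylated 16- to 20-mer LRRC25 ECD overlapping peptides (2 ug/mL), with biotinylated human LRRC25-His as positive control. Chimeric anti-LRRC25 antibodies at 20 nM, 45 min at 37° C in duplicate; detection by HRP anti-human IgG and TMB at A450 nm.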

The target in assay [4] is T4, LRRC25(36-55) biotin peptide (human, not fully specified; N-terminal NH2; C-terminal GGK-Biotin; native Cys changed to Ser).
T4 peptide: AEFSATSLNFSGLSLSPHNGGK
Description: peptide ELISA. Summed up:
as §2

Assay [5] addresses T5, LRRC25(141-159) biotin peptide (human, not fully specified; N-terminal acetyl; C-terminal GGK-Biotin; native Cys changed to Ser).
T5 peptide: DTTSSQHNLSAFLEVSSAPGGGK
Briefly: peptide ELISA. Summed up:
as §2

Assay [6] concerns the target T6, LRRC25(150-165) biotin peptide (human).
T6 peptide: Ac-SAFLEVSSAPGLASATGG-{Biotin′}
Briefly: peptide ELISA. Summed up:
as §2

Assay [7] addresses T7, LRRC25(126-145) biotin peptide (human, not fully specified; N-terminal acetyl; C-terminal GGK-Biotin; native Cys changed to Ser).
T7 peptide: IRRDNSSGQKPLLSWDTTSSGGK
Description: peptide ELISA. Summed up:
as §2

Assay [8] addresses T8, LRRC25(21-40) biotin peptide (human, not fully specified; N-terminal NH2; C-terminal GGK-Biotin; native Cys changed to Ser).
T8 peptide: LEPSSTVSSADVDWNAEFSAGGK
Description: peptide ELISA. The procedure, abridged:
as §2

The target in assay [9] is T9, LRRC25(81-100) biotin peptide (human, not fully specified; N-terminal acetyl; C-terminal GGK-Biotin).
T9 peptide: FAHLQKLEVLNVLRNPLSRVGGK
Description: peptide ELISA. The procedure, abridged:
as §2

Assay [10] concerns the target T10, LRRC25(51-69) biotin peptide (human, not fully specified; N-terminal acetyl; C-terminal GGK-Biotin).
T10 peptide: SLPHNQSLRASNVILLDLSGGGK
Briefly: peptide ELISA. Summed up:
as §2

Assay [11] deals with T11, LRRC25(66-85) biotin peptide (human, not fully specified; N-terminal acetyl; C-terminal GGK-Biotin).
T11 peptide: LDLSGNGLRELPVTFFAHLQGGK
Description: peptide ELISA. Summed up:
as §2

In assay [12] the target is T12, LRRC25(96-115) biotin peptide (human, not fully specified; N-terminal acetyl; C-terminal GGK-Biotin; native Cys changed to Ser).
T12 construct: also called Biotin LRRC25 (96-115) peptide
T12 peptide: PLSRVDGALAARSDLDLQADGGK
Briefly: ELISA, 20 nM antibody, biotinylated antigen on streptavidin plate. The procedure, abridged: as §2

For assay [13], the target named is T13, biotinylated human LRRC25-His protein (human, UniProt Q8N386 21-165, biotinylated (sites not given)).
T13 construct: also called Biotin LRRC25-His; biotinylated LRRC25 protein
T13 sequence (Q8N386 other isoform, or with tags, fused parts or gaps): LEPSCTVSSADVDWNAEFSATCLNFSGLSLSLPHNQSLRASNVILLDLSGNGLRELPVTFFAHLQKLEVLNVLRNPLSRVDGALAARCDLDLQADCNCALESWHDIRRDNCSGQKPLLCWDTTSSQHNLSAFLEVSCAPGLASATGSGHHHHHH
The assay is described as above. Summed up: as §2

For assay [14], the target named is T12, LRRC25(96-115) biotin peptide. Briefly: peptide ELISA. Summed up: as §2

T2 sequence (Q8N386 other isoform, or with tags, fused parts or gaps): as above
T1 sequence (chain, as listed by the source limits assumed): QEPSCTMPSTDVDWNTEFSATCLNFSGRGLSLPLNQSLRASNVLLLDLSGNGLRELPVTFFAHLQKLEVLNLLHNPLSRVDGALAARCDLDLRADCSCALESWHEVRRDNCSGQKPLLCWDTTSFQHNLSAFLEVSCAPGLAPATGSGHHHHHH

B1: anti-LRRC25 chimeric antibody 1B03 (antibody, human IgG4, V domains shown)
VH: EVQLVESGGGLVKPGGSLKLSCAASGFTFSSYAMSWVRQTPEKRLEWVASISRGGNTYYPDSMKGRFTISRDNARNILYLQMSSLRSEDTAMYYCARGQELRLFAYWGQGTLVTVSA
VL: QILLTQSPASLAVSLGQRATISCRASESVDSYGNSFMHWYQQKPGQPPKLLIYLASNLESGVPARFSGSGSRTDFTLTIDPVEADDAATYYCQQNNEDPWTFGGGTKLEIKR
Consider B1, for which the half-maximal effective concentration (EC50) is 42.5 nM in assay [1] and 1.3 nM in [2]. Further, the binding result in assay [3], in [4], in assay [5], in [6], in [7] and in assay [8] was “no binding (tested: 20 nM)” each time. The binding result in assay [9], in assay [10] and in assay [11] was “no binding (tested: 20 nM)” each time. For the same molecule, the “absorbance (A450)” value in assay [12] turned out to be 1.64 A450; in [13] it was 1.88 A450.

B2: anti-LRRC25 chimeric antibody 3C07 (antibody, human IgG4, V domains shown)
VH: EVKLDESGGGLVKPGGSLKLSCAASGFTFSRYAMSWVRQTPEKRLEWVASISRGGSTYYPDSVKGRFTISRDIARDILYLQMSSLRSEDTAMYYCARGNYGSSLFAYWGQGTLVTVSA
VL: DIVMTQAAFSNPVTLGTSASISCRSSKSLLHSNGITYLYWYLQKPGQSPQLLIYQMSNLASGVPDRFSSSGSGTDFTLRISRVEAEDVGVYYCAQNLELPWTFGGGTKLEIKR
For B2, the EC50 in assay [1] was ~200 nM; in assay [2] it was 16.1 nM. Moreover, the binding result in assay [3], in assay [4], in assay [5], in assay [6], in assay [7] and in assay [8] was “no binding (tested: 20 nM)” each time. The binding result in assay [14], in assay [9], in assay [10] and in assay [11] was “no binding (tested: 20 nM)” throughout. Moreover, the “absorbance (A450)” value in assay [12] is 0.134 A450; in assay [13], 0.714 A450.

B3: anti-LRRC25 chimeric antibody 1C10 (antibody, human IgG4, V domains shown)
VH: EEKLDESGGGLVKPGGSLKLSCAASGFTFSSYAMSWVRQTPEKRLEWVASISRGGNTYYPDSVKGRFTISRDNARNILYLQMSSLRSEDTAMFYCARGDYGSSLFAYWGQGTLVTVSA
VL: DIVMTQAAFSNPVTLGTSASISCRSSKSLLHSNGITYLYWYLQKPGQSPQLLIYQMSNLASGVPDRFSSSGSGTDFTLRISRVEAEDVGVYYCAQNLELPFTFGSGTKLEIKR
As for B3, the EC50 is ~1000 nM in [1] and 73.4 nM in [2]. Moreover, the binding result in assay [3], in [4], in [5], in assay [6], in assay [7] and in assay [8] was “no binding (tested: 20 nM)” each time. For the same molecule, the binding result in [9], in [10] and in [11] was “no binding (tested: 20 nM)” in each case. Besides, the “absorbance (A450)” value in [12] worked out at 0.334 A450; in [13], 0.421 A450.

B4: anti-LRRC25 chimeric antibody 2A07 (antibody, human IgG4, V domains shown)
VH: EVKLDESGGGLVQPGGSLKLSCATSGFTFSDYYMYWVRQTPEKRLEWVAYISNGGGSTYYPDTVKGRFTISRDNAKNTLYLQMSRLKSEDTAMYYCARSTAVSQMDYWGQGTSVTVSS
VL: DIVLTQSPAIMSASPGEKVTLTCSASSSVRSSYLNWYQQKPGSSPKLWIHGTSNLASGVPARFSGSGSGTSYSLTISSMEAEDAASYFCHQWSSYPPTFGAGTKLELKR
Take B4: the EC50 was found to be 4.6 nM in [1] and 0.63 nM in assay [2]. For the same molecule, the binding result in assay [3], in assay [4], in assay [5], in assay [6], in [7] and in assay [8] was “no binding (tested: 20 nM)” in each case. Also, the binding result in assay [14], in assay [9], in assay [10] and in [11] was “no binding (tested: 20 nM)” in each case. The “absorbance (A450)” value was determined as 0.052 A450 in assay [12] and 2.44 A450 in [13].

B5: anti-LRRC25 chimeric antibody 2C07 (antibody, human IgG4, V domains shown)
VH: QITLKESGPGILQPSQTLSLTCSFSGFSLTTSGMGVSWIRQPSGKGLEWLAHIYWDDDKRYNPSLRSRLTISKDTSSNQVVLKLTNVDTADTATYYCARRARDYYNSGHWYFDVWGAGTTVTVSS
VL: DVVMTQTPKSMSMSVGERVTLSCKASENVGTYVSWYQQKPDQSPKLLIFGASNRYTGVPDRFTGSGSATDFTLTISSVQAEDLADYHCGQTYSFPFTFGSGTKLEIKR
On to B5, for which the EC50 worked out at 0.65 nM in assay [1] and 0.39 nM in [2]. Also, the binding result in assay [3], in assay [4], in assay [5], in assay [6], in assay [7] and in assay [8] was “no binding (tested: 20 nM)” each time. Besides, the binding result in [14], in assay [9], in [10] and in [11] was “no binding (tested: 20 nM)” each time. Further, the “absorbance (A450)” value in assay [12] was determined as 0.054 A450; in [13], 2.6 A450.

B6: anti-LRRC25 chimeric antibody 2C08 (antibody, human IgG4, V domains shown)
VH: QVTLKESGPGILQPSQTLSLTCSFSGFSLSTSGMGVSWIRQPSGKGLEWLAHIYWDDDKRYNPSLKSRLTLSKDTSSNQVFLKITSVDTADTATYYCARRPRDYYGGGHWYFDVWGAGTTVTVSS
VL: DIVMTQSPKSMSMSVGERVTLTCKASENVGTYVSWYQQKAEQSPKLLIYGASNRYTGVPDRFTGSGSATDFTLTISNVQTEDLADYHCGQSYSYPFTFGSGTKLEIKR
For the molecule B6, the EC50 in assay [1] was 1.4 nM; in assay [2], 2 nM. Further, the binding result in assay [3], in assay [4], in assay [5], in assay [6], in assay [7] and in assay [8] was “no binding (tested: 20 nM)” each time. The binding result in [14], in assay [9], in [10] and in [11] was “no binding (tested: 20 nM)” each time. Also, the “absorbance (A450)” value in [12] came to 0.049 A450; in assay [13], 2.39 A450.

By EC50 is commonly meant the concentration needed to bring the measured effect to its halfway point.
